Data published in patent US20150344570A1 (published 2015).

T1: FcγRIIa H (FcgRIIa type H, His at position 131), extracellular domain with C-terminal His tag (human, UniProt P12318 34-217)
T1 construct: extracellular domain; also called 2aH; FcgRIIa H; not shown: His tag at the C terminus
T1 sequence (looked up): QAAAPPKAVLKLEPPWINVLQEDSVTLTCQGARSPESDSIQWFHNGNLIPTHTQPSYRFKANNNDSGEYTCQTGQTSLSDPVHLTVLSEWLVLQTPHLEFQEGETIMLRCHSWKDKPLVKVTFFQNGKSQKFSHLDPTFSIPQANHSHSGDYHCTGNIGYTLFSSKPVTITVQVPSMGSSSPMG

T2: FcγRIIb, extracellular domain with C-terminal His tag (human, UniProt P31994 43-217)
T2 construct: extracellular domain; also called 2b; FcgRIIb; not shown: His tag at the C terminus
T2 sequence (looked up): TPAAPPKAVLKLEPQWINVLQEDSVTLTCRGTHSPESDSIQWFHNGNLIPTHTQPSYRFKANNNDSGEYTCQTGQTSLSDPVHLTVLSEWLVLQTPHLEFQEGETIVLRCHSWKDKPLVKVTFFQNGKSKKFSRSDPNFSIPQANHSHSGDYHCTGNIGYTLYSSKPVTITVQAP

T3: FcγRIIb (human, UniProt P31994 43-217)
T3 construct: extracellular domain; also called FcgRIIb; 2b
T3 sequence (looked up): T2 sequence (looked up)

B1: GpH7-A5/GpH7-B3 variant S267_01G/GpL16-k0 (antibody, human IgG1, kappa)
heavy 1: not shown
heavy 2: not shown
light: DIVMTQSPLSLPVTPGEPASISCQASESLVHSNRNTYLHWYLQKPGQSPQLLIYKVSNRFSGVPDRFSGSGSGTDFTLKISRVEAEDVGVYYCSQNTHVPPTFGQGTKVEIERTVAAPSVFIFPPSDEQLKSGTASVVCLLNNFYPREAKVQWKVDNALQSGNSQESVTEQDSKDSTYSLSSTLTLSKADYEKHKVYACEVTHQGLSSPVTKSFNRGEC
notes: He Ab; alteration in one H chain only; also called He Ab
B2: GpH7-A5/GpH7-B3 variant S267_06M/GpL16-k0 (antibody, human IgG1, kappa)
heavy 1: not shown
heavy 2: not shown
light: B1 light
notes: as for B1
B3: GpH7-A5/GpH7-B3 variant P271_09D/GpL16-k0 (antibody, human IgG1, kappa)
heavy 1: not shown
heavy 2: not shown
light: B1 light
notes: as for B1
B4: GpH7-A5/GpH7-B3 variant H268_02A/GpL16-k0 (antibody, human IgG1, kappa)
heavy 1: not shown
heavy 2: not shown
light: B1 light
notes: as for B1
B5: GpH7-A5/GpH7-B3 variant H268_10E/GpL16-k0 (antibody, human IgG1, kappa)
heavy 1: not shown
heavy 2: not shown
light: B1 light
notes: as for B1
B6: GpH7-A5/GpH7-B3 variant V266_10E/GpL16-k0 (antibody, human IgG1, kappa)
heavy 1: not shown
heavy 2: not shown
light: B1 light
notes: mutation in the GpH7-B3 chain only; also called He Ab
B7: GpH7-A5/GpH7-B3 variant V266_19Q/GpL16-k0 (antibody, human IgG1, kappa)
heavy 1: not shown
heavy 2: not shown
light: B1 light
notes: as for B6
B8: GpH7-A5/GpH7-B3 variant K326_02A/GpL16-k0 (antibody, human IgG1, kappa)
heavy 1: not shown
heavy 2: not shown
light: B1 light
notes: as for B1
B9: GpH7-A5/GpH7-B3 variant S267_03V/GpL16-k0 (antibody, human IgG1, kappa)
heavy 1: not shown
heavy 2: not shown
light: B1 light
notes: as for B1
B10: GpH7-A5/GpH7-B3 variant S267_14T/GpL16-k0 (antibody, human IgG1, kappa)
heavy 1: not shown
heavy 2: not shown
light: B1 light
notes: as for B1
B11: GpH7-A5/GpH7-B3 variant S267_04F/GpL16-k0 (antibody, human IgG1, kappa)
heavy 1: not shown
heavy 2: not shown
light: B1 light
notes: as for B1
B12: GpH7-A5/GpH7-B3 variant H268_05P/GpL16-k0 (antibody, human IgG1, kappa)
heavy 1: not shown
heavy 2: not shown
light: B1 light
notes: as for B1
B13: GpH7-A5/GpH7-B3 variant H268_09D/GpL16-k0 (antibody, human IgG1, kappa)
heavy 1: not shown
heavy 2: not shown
light: B1 light
notes: as for B1
B14: GpH7-A5/GpH7-B3 variant P271_01G/GpL16-k0 (antibody, human IgG1, kappa)
heavy 1: not shown
heavy 2: not shown
light: B1 light
notes: as for B1
B15: GpH7-A5/GpH7-B3 variant S267_05P/GpL16-k0 (antibody, human IgG1, kappa)
heavy 1: not shown
heavy 2: not shown
light: B1 light
notes: as for B1
B16: GpH7-A5/GpH7-B3 variant H268_19Q/GpL16-k0 (antibody, human IgG1, kappa)
heavy 1: not shown
heavy 2: not shown
light: B1 light
notes: as for B1
B17: GpH7-A5/GpH7-B3 variant S267_15Y/GpL16-k0 (antibody, human IgG1, kappa)
heavy 1: not shown
heavy 2: not shown
light: B1 light
notes: as for B1
B18: GpH7-A5/GpH7-B3 variant S267_07I/GpL16-k0 (antibody, human IgG1, kappa)
heavy 1: not shown
heavy 2: not shown
light: B1 light
notes: as for B1
B19: GpH7-A5/GpH7-B3 variant S267_10E/GpL16-k0 (antibody, human IgG1, kappa)
heavy 1: not shown
heavy 2: not shown
light: B1 light
notes: as for B1

Assays:
[1] = molecular target: T1, FcγRIIa H (FcgRIIa type H, His at …); assay: SPR (Biacore), relative binding, GpH7-A5/GpH7-B3/GpL16-k0 = 100
[2] = molecular target: T2, FcγRIIb, extracellular domain with …; assay: as above
[3] = molecular target: T1, FcγRIIa H (FcgRIIa type H, His at …); assay: SPR; He/Con_2aH divided by He/Con_2b (FcγRIIa H binding over FcγRIIb binding)
[4] = molecular target: T3, FcγRIIb; assay: SPR (Biacore), relative binding
[5] = molecular target: T4, FcγRIIIa (human, UniProt P08637 17-208); assay: SPR (Biacore), relative binding
T4 construct: extracellular domain; also called FcgRIIIa; 3a
T4 sequence (P08637 17-208): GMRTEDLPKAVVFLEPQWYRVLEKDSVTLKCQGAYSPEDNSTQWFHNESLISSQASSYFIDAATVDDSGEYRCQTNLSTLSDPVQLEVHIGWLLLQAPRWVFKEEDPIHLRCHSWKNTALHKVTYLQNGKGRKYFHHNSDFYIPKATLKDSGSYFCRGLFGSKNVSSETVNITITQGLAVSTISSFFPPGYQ

[6] = molecular target: T4, FcγRIIIa; assay: SPR; He/Con_3a divided by He/Con_2b (FcγRIIIa against FcγRIIb)

Row | Binder | He/Con_2aH [1] | He/Con_2b [2] | He_2aH/2b (IIaH/IIb) [3] [ratio] | He/Con_2b [4] | He/Con_3a [5] | He_3a/2b (IIIa/IIb) [6] [ratio]
1 | B1 | 71.3 % of control | 105 % of control | 0.68 |  |  | 
2 | B2 | 34.3 % of control | 210 % of control | 0.16 |  |  | 
3 | B3 | 70.1 % of control | 120 % of control | 0.58 |  |  | 
4 | B4 | 114 % of control | 167 % of control | 0.68 |  |  | 
5 | B5 | 124 % of control | 230 % of control | 0.54 |  |  | 
6 | B6 |  |  |  | 15.2 % of GpH7-A5/GpH7-B3/GpL16-k0 | 4.1 % of GpH7-A5/GpH7-B3/GpL16-k0 | 0.27
7 | B7 |  |  |  | 89.2 % of GpH7-A5/GpH7-B3/GpL16-k0 | 34.7 % of GpH7-A5/GpH7-B3/GpL16-k0 | 0.39
8 | B8 | 106 % of control | 139 % of control | 0.76 |  |  | 
9 | B9 | 50.8 % of control | 192 % of control | 0.26 |  |  | 
10 | B10 | 63.3 % of control | 104 % of control | 0.61 |  |  | 
11 | B11 | 22.7 % of control | 48 % of control | 0.47 |  |  | 
12 | B12 | 81.8 % of control | 116 % of control | 0.7 |  |  | 
13 | B13 | 133 % of control | 239 % of control | 0.55 |  |  | 
14 | B14 | 107 % of control | 193 % of control | 0.55 |  |  | 
15 | B15 | 25.1 % of control | 31.5 % of control | 0.8 |  |  | 
16 | B16 | 102 % of control | 133 % of control | 0.77 |  |  | 
17 | B17 | 19.6 % of control | 37.9 % of control | 0.52 |  |  | 
18 | B18 | 34.7 % of control | 192 % of control | 0.18 |  |  | 
19 | B19 | 102 % of control | 379 % of control | 0.27 |  |  | 
